Blank lines part the entries; values can stand above or below the molecule they belong to.
Legend:
wtAR = target: T1, wtAR (Homo sapiens, UniProt P10275); assay: AR transactivation, transient transfection with MMTV-CAT reporter in DU145 cells; settings: for AR transcriptional activity induction with cotransfected coactivator: wild type AR, 1 nM DHT, DU145, from 5-fold without coactivator
T1 sequence (P10275 1-920): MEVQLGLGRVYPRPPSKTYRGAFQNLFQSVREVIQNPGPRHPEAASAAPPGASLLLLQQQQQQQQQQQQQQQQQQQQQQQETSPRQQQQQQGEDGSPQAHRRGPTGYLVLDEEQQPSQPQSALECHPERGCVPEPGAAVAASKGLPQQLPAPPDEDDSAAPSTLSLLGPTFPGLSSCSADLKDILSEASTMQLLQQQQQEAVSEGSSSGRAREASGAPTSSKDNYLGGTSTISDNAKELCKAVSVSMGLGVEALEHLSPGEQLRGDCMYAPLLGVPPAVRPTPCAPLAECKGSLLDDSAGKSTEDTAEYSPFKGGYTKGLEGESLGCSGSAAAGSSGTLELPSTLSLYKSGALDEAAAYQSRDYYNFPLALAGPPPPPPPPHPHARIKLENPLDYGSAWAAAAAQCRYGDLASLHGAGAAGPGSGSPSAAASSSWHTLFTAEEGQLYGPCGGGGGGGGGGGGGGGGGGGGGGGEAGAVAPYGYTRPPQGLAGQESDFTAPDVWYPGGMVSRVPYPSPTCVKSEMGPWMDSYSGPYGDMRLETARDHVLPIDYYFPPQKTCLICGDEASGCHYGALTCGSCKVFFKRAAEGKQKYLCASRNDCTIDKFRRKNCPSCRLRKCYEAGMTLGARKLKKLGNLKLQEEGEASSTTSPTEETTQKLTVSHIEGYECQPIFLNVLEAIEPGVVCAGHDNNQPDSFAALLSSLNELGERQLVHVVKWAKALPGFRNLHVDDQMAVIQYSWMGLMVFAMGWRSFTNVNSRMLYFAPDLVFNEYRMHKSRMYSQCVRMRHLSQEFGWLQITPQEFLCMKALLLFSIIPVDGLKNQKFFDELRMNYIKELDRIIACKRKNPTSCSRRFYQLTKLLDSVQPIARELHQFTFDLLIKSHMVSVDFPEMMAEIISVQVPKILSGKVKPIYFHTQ

mARt877s = assay: AR transactivation, transient transfection CAT reporter assay, mutant AR; assay type: cell-based, human
ARA55 mRNA = assay: Northern blot of ARA55 mRNA in PC3 cells; assay type: cell-based, human; settings: TGFβ 5 ng/ml
Procedure: The total RNA (25 μg) was fractionated on a 1% formaldehyde-MOPS agarose gel, transferred onto a Hybond-N nylon membrane (Amersham) and prehybridized. A probe corresponding to the 900 bp C-terminus of ARA55 or an ARA54-specific sequence was ^32P-labeled in vitro using Random Primed DNA Labeling Kit (Boehringer-Mannheim) according to the manufacture's protocol and hybridized overnight. After washing, the blot was exposed and quantified by Molecular Dynamics PhosphorImager. β-actin was used to monitor the amount of total RNA in each lane.

AR [1] = target: T2, AR (Homo sapiens, UniProt P10275); assay: AR transcriptional activity (MMTV-CAT) in PC3 cells; settings: TGFβ treatment
T2 sequence (P10275 1-920): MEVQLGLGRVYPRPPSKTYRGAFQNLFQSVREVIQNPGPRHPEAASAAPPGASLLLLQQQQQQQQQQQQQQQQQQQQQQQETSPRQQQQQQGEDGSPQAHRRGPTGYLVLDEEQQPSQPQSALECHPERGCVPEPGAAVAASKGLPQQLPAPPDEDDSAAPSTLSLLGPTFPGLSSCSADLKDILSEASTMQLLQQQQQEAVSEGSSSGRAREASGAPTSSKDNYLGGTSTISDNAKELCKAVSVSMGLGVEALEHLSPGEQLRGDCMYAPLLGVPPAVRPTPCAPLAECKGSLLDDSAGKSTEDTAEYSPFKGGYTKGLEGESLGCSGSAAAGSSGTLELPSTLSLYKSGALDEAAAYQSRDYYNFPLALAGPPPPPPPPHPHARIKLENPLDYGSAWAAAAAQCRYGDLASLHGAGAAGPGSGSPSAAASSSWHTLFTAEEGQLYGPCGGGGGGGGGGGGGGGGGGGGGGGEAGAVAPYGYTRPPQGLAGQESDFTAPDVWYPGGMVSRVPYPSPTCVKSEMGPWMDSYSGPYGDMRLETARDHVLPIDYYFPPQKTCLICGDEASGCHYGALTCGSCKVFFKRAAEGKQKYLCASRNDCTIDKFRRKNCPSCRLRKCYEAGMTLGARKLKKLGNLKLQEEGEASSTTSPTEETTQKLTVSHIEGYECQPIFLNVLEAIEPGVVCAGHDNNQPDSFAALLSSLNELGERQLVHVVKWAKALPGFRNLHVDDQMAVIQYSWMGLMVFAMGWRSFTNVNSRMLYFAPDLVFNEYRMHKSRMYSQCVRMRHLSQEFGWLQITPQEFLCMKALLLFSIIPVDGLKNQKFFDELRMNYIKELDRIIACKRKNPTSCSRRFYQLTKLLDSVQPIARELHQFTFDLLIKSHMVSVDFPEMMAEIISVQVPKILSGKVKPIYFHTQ

AR [2] = assay: Mammalian two-hybrid assay with CAT reporter in DU145 cells; assay type: cell-based, human
Description: The mammalian two-hybrid system employed was essentially the protocol of Clontech (California), with the following modifications. […] The hinge and LBD of wtAR were then inserted into pGAL0. Similarly, the VP16 activation domain was fused to pCMX under the control of a CMV promoter, and designated pCMX-VP16 (provided by Dr. R. M. Evan).

[3] = target: T3, progesterone receptor (PR) (Homo sapiens, UniProt P06401); assay: Steroid receptor transactivation, MMTV-CAT reporter in DU145 cells; assay type: cell-based; settings: DU145 cells, cognate ligand
T3 construct: expressed in transfected cells; host or cells: DU145
T3 sequence (P06401 1-933): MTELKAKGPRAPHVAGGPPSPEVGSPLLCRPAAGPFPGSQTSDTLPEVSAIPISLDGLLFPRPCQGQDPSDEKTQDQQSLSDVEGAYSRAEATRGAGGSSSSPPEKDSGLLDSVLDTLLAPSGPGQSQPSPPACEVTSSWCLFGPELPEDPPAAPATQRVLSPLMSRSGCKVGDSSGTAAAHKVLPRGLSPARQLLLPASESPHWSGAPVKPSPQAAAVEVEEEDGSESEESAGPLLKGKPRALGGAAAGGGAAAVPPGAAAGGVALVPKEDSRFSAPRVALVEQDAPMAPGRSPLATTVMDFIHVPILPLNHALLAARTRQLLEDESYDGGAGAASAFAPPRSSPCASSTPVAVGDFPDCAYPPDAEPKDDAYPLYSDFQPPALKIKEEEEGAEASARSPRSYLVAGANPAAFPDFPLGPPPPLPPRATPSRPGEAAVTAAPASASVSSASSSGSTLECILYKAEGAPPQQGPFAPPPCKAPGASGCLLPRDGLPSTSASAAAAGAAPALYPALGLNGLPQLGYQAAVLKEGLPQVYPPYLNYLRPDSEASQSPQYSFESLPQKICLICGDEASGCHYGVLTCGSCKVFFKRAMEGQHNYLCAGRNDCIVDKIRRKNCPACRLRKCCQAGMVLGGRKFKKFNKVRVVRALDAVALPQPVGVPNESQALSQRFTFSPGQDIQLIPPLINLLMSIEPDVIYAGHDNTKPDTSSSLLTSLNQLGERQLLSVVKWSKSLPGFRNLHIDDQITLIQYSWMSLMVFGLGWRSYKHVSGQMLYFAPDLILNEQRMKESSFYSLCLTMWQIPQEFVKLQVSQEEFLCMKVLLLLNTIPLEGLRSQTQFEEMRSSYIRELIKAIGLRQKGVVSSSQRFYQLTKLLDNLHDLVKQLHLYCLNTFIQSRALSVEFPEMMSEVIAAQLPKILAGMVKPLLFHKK

[4] = target: T4, glucocorticoid receptor (GR) (Homo sapiens, UniProt P04150); assay: as above; assay type: cell-based; settings: DU145 cells
T4 construct: expressed in transfected cells; host or cells: DU145
T4 sequence (P04150 1-777): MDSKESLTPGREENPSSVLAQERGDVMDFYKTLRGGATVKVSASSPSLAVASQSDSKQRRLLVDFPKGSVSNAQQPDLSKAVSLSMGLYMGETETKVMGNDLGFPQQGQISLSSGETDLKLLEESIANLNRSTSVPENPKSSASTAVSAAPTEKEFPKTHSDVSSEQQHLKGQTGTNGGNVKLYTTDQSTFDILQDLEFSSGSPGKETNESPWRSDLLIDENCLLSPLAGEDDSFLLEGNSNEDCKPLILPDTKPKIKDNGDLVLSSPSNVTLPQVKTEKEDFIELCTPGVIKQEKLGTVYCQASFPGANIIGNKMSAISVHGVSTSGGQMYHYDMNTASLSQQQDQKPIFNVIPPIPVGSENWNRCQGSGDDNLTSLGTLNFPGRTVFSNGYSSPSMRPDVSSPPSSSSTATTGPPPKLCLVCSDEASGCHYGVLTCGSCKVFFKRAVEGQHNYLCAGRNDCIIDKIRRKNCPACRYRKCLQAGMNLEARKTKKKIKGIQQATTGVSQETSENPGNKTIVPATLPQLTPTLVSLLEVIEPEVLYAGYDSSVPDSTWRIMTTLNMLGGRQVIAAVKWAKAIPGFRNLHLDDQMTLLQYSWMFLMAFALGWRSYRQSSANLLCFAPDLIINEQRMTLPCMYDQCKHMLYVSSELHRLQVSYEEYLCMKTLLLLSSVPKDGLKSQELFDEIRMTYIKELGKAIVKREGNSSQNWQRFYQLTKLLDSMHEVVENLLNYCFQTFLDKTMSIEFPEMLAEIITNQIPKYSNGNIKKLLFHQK

estrogen receptor (ER) = target: T5, estrogen receptor (ER) (Homo sapiens, UniProt P03372); assay: Steroid receptor transactivation, ERE-CAT reporter in DU145 cells; assay type: cell-based; settings: DU145 cells
T5 construct: expressed in transfected cells; host or cells: DU145
T5 sequence (P03372 1-595): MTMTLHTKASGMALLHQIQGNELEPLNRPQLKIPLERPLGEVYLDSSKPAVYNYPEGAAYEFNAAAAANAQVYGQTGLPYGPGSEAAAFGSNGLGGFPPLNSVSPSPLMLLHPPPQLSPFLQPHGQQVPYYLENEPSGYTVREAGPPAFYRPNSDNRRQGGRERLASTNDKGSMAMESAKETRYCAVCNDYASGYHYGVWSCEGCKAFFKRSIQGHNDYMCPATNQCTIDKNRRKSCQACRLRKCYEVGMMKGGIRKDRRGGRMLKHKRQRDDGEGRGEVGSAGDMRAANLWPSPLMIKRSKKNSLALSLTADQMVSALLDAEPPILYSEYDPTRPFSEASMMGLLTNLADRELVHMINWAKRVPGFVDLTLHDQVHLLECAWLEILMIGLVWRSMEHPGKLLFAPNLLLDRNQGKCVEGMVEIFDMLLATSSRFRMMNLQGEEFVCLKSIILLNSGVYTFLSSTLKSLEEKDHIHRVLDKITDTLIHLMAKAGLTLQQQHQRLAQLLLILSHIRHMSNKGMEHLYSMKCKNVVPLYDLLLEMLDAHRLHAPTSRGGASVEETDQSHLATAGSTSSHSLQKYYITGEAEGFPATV

AR transcriptional activity induction with cotransfected coactivator (wtAR): 36 fold
Molecule: ARA70: the first identified AR coactivator, used as positive control [reference compound]

Molecule: C[C@]12CC[C@@H]3c4ccc(O)cc4CC[C@H]3[C@@H]1CC[C@@H]2O [E2, 17 β estradiol]
response of Art877a transactivation to ligand (mARt877s; absence of ARA54, E2 10^-9-10^-7 M, HF 10^-7-10^-5 M): responded
response of LNCaP mAR to ligand compared to wtAR (mARt877s; compared to wtAR): responded much better

increase of AR transcriptional activity (AR [1]): 70%
Molecule: TGFβ
induction of ARA55 mRNA (ARA55 mRNA): 2 fold

AR transcriptional activity induction with cotransfected coactivator (wtAR): 21 fold
Molecule: Rb: retinoblastoma protein, SEQ ID NO:8, expressed by transfection as AR coactivator
induced CAT activity in mammalian two-hybrid assay (interaction with AR) (AR [2]; DU145, Rb with near full length AR (aa 36-918)): 3 fold

induction of PR transcriptional activity by ARA54 [3]: 3–5 fold
effect of ARA54 on GR transcriptional activity [4]: less than 2 fold
enhancement of wtAR transactivation by coexpressed ARA54 (wtAR; DHT 10^-10 to 10^-8 M): 3–5 fold
induction of AR transcriptional activity by ARA54 (wtAR; DU145 cells, cognate ligand): up to 6 fold
effect of ARA54 on ER transcriptional activity (estrogen receptor (ER)): less than 2 fold
B1: ARA54: 54 kDa androgen receptor coactivator, 474 aa, SEQ ID NO:2, expressed by transfection (protein)
chain: MSSEDREAQEDELLALASIYDGDEFRKAESVQGGETRIYLDLPQNFKIFVSGNSNECLQNSGFEYTICFLPPLVLNFELPPDYPSSSPPSFTLSGKWLSPTQLSALCKHLDNLWEEHRGSVVLFAWMQFLKEETLAYLNIVSPFELKIGSQKKVQRRTAQASPNTELDFGGAAGSDVDQEEIVDERAVQDVESLSNLIQEILDFDQAQQIKCFNSKLFLCSICFCEKLGSECMYFLECRHVYCKACLKDYFEIQIRDGQVQCLNCPEPKCPSVATPGQVKELVEAELFARYDRLLLQSSLDLMADVVYCPRPCCQLPVMQEPGCTMGICSSCNFAFCTLCRLTYHGVSPCKVTAEKLMDLRNEYLQADEANKRLLDQRYGKRVIQKALEEMESKEWLEKNSKSCPCCGTPIEKLDGCNKMTCTGCMQYFCWICMGSLSRANPYKHFNDPGSPCFNRLFYAVDVDDDIWEDEVED
modifications: Homo sapien
CAT activity on coexpression of AR with ARA54 (AR [2]; DU145, 10^-8 M DHT): significantly induced

Reference: patent US7052908B2, “Androgen receptor coactivators” (University of Rochester, priority 1998, dated 2006)
